# Laboratory results from patent US20130172246A1, “INSULIN GLARGINE VERSUS METFORMIN FOR THE FIRST-LINE TREATMENT OF EARLY TYPE-2 DIABETES” (priority 2011, published 2013).
# Like-named read-outs stand apart in the source and are kept apart here.
# Columns and labels:
# [1] = human, in vivo
# Experimental: (§1) • Checking the inclusion/exclusion criteria • Physical examination • Measuring body weight, waist/hip measurement, blood pressure, pulse • Recording the change in concomitant medication and concomitant conditions • Recording AEs and SAEs • Applying the CGMS for up to 72 h, briefing and training the patient • Randomization: • Group A: Titrating insulin glargine to target level of fasting plasma glucose (5.6 mmol/l (100 mg/dl)) • Briefing and training the patients in insulin use (Depending on the organization, training measures can be implemented during the overall visit 1 a-c.) • Group B: 500 mg of metformin tid • Pregnancy test, if applicable. • Laser Doppler measurement; only at center 01 and 02
# (§2) • Recording the change in concomitant medication • Recording AEs and SAEs • Physical examination • Measuring body weight, waist/hip measurement, blood pressure, pulse • Applying the CGMS for up to 72 h, briefing and training the patient • Drug accountability/compliance (registering the used-up medication) • Laser Doppler measurement, only at center 01 and 02
# [2] = system: type 2 diabetes patients; details: background statement; cited from earlier work
# [3] = system: type 2 diabetes patients; test: Hypoglycemic events and low interstitial glucose periods during CGM; type: in vivo, human; details: early treatment with GLA vs. MET
# Experimental: Below is a list of the various target parameters: • Protection of the β-cells by early insulin therapy • C-Peptide (fasting and 2 h pp after TM) • Proinsulin (fasting and 2 h pp after TM) • Glycemic variability: • Glycemic load • Standard deviation (SD), • MAGE • HbA1c • Anti-inflammatory action of insulin: • Biomarkers of subclinical inflammation (fasting and 2 h pp) • hsCRP, • PAI-1, • Leukocyte count • Back-up samples for determining • MMP9 • ADMA • Adiponectin • Effect on endothelial function • Endothelial function at ball of thumb using laser Doppler (O2C) • Effect on renal function • Microalbuminuria (albumin/creatinine ratio) • Serum creatinine • Risk of hypoglycemia • Hypoglycemic intervals (time<3 mmol glucose) during CGM over 48 hours (day 2+3 after TM) • Free fatty acids […]
# [4] = system: type 2 diabetes patients; details: ORIGIN-CGMS substudy, cited from earlier work
# [5] = system: type 2 diabetes patients; details: cited from earlier work
# [6] = Body weight, BMI, abdominal and hip measurement in the clinical trial
# Experimental: as §1, §2
# [7] = per protocol, change visit 1 to visit 8, mean (SD), unit as in Table 4
molecule,measurement,setting,value
Insulin glargine,Abdomen - change,[1],1.1 (3.7) cm
same,Abdomen - visit 8,[1],104.3 (10.7) cm
same,BMI - change,[1],−0.5 (1.3) kg/m^2
same,BMI - visit 8,[1],29.9 (4.1) kg/m^2
same,Hip - 8th visit,[1],108.6 (9.4) cm
same,Hip - change,[1],1.6 (4.1) cm
same,weight gained,[1],1.5 ± 3.8 kg
same,serious adverse reactions,[2],without serious adverse reactions such as severe hypoglycemias
same,stable HbA1c level achieved,[2],around 6%
same,number of hypoglycemic events,[3],no rise in the number of hypoglycemic events
same,difference in the AUC TM for BG vs. standard treatment (predominantly metformin therapy),[4],15%
same,difference in the AUC TM for BG vs. standard treatment (predominantly metformin therapy),[4]; standard deviation 179,127 mmol*120 min
CN(C)C(=N)N=C(N)N [Metformin],patients additionally receiving sulfonylureas or other combinations with oral antidiabetics,"[5]; after one to two years, UK-PDS and DIG study",over 50%
same,"patients with stomach complaints, disturbances in appetite and, very rarely, allergies",[5]; background statement,approximately 10%
same,cases in which not tolerated,[5]; reference [17],approximately 15%
same,Abdomen - visit 8,"[6]; abdominal circumference, per protocol, week 36, mean (SD), unit as in Table 4",100.5 (13.7) cm
same,Hip - 8th visit,"[6]; hip measurement, per protocol, week 36, mean (SD), unit as in Table 4",108.0 (11.6) cm
same,weight loss,"[6]; over the study, vs. GLA p<0.001",3.0 ± 4.3 kg
same,Abdomen - change,[6]; [7],−2.0 (4.1) cm
same,BMI - change,[6]; [7],1.0 (1.4) kg/m^2
same,Hip - change,[6]; [7],−1.6 (4.1) cm
same,BMI - visit 8,"[6]; per protocol, week 36, mean (SD), unit as in Table 4",29.3 (5.3) kg/m^2
